Source: patent US20090087478A1 (PROGENICS PHARMACEUTICALS NEVADA, published 2009)
Where two headings read alike, the source gives them in different places.

B1: Antibody 227 (or 3359), murine monoclonal anti-toxin A antibody (antibody, V domains shown)
VH: EVQLVESGGGLMKPGGSLKLSCAASGFAFGSYDMSWVRQTPEKRLEWVAYISSGGGITFYPDSVRGRFTISRDNAKNSLYMEMSSLRSEDTAMYYCARWDWDLFAYWGQGTLVTVSA
VL: DIKMTQSPSSMYTSLGERVTITCKASQDINSCLSWFQQKPGKSPKALIFRANILVDGVPSRFSGSGSGQDYSLTISSLEYEDLGIYYCLQYDEFPWTFGGGTRLEIK
B2: Antibody F87, murine monoclonal anti-toxin B antibody (antibody, V domains shown)
VH: QVQLQQPGTELVKPGASVKLSCKASGYTFTNYWMHWVKQRPGQGLEWVGNINPSNGGTNYNEKFKSKATLTVDKSSSTAYMQLSSLTSEDSAFYYCARGRGPPYYSDYWGQGSTLTVSS
VL: NIQMTQSPASLSASVGETVTITCRASGNIHNYLAWYQQKQGKSPQLLVYNAKTLADGVPSRFSGSGSGTQYSLKINSLQPEDFGSYYCQHFWSTPFTFGSGTKLEIK
B3: Antibody 3358 (or 543), murine monoclonal anti-toxin A antibody (antibody, V domains shown)
VH: QVQLQQPGAELVKPGASVRLSCKAGGYTFTSYWLHWVKQRPGQGLEWIGMIHPNSGSYDYSETFRTKATLTVDKSSDTAYMQLTSLTSEDSAVYYCARGGSNYDIFAYWGQGTTLTVSS
VL: NIVMTQSPKSMSMSVGERVTFNCRASENVGTYVFWYQQKPEQSPRLLIYGASNRYTGVPDRFTGSGSATDFTLTISGVQAEDLADYHCGQSYRHLTFGGGTKLEIK
B4: rPBA-3, chimeric recombinant form of anti-toxin A monoclonal antibody PBA-3 (wildtype, plasmids BD12584 heavy and BD12585 light) (antibody, V domains shown)
VH: QVQLQQSGPELVKPGASVRISCKASGFTFTSYHVNWVKQRPGQGLEWIGWIYPGNVNTEYNEKFKGKATLTADKSSSTAYMQLSSLTSEDSAVYFCASHEYYGSDWYFDVWGAGTTVTVSS
VL: DAVMTQTPLSLPVSLGDQASISCRSSQSLENRNGNTYLNWYLQKPGQSPQLLIYRVSNRFSGVLDRFSGSGSGTDFTLKISRVEAEDLGVYFCLQVTHVPYTFGGGTKLEIK

How the values were obtained:
[1] = biological target: T1, ToxA:2459-2710 (C-terminal eleven repeats of the toxin A CWB domain) (Clostridium difficile, UniProt P16154 2459-2710)
[2] = biological target: T2, ToxB:1807-2366 (CWB domain of C. difficile toxin B, expressed in E. coli) (Clostridium difficile, UniProt P18177 1807-2366); assay: SPR, toxin domain immobilised, apparent Kd
T2 construct: range 1807-2366

[3] = biological target: T1, ToxA:2459-2710 (C-terminal eleven …); assay: SPR, apparent KD

| Binder | Kd [1] [nM] | Kd [2] [nM] | Kd [3] [nM] |
| --- | --- | --- | --- |
| B1 | 12 |  |  |
| B2 |  | 0.05 |  |
| B3 | 0.7 |  | < 30 |
| B4 | 60 |  |  |
